Reference: the supplement of paper PMC5998384

Legend:
HeLa Kyoto [1] = test: solubility in G1/S (NP-40 vs SDS abundance) (log2 ratio); higher = more soluble; conditions: cell cycle stage: G1/S
HeLa Kyoto [2] = test: melting temperature (median over replicates), in situ; higher = more thermally stable
HeLa Kyoto [3] = test: solubility change mitosis vs G1/S (difference of NP-40 vs SDS log2 ratios) (log2 ratio difference); higher = more soluble in mitosis
HeLa Kyoto [4] = test: thermal stability score vs G1/S (z-score of summed log2 fold changes over temperatures); higher = more thermally stable than in G1/S
[5] = cell cycle stage: early G1 (4.5 h after nocodazole release)
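For melting temperature (median over replicates), in situ in this document: HeLa Kyoto cells synchronized by double thymidine or nocodazole block, proteins quantified by TMT10plex mass spectrometry, three independent biological replicates.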
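For solubility change mitosis vs G1/S (difference of NP-40 vs SDS log2 ratios) in this document: synchronized HeLa Kyoto cells (double thymidine block for G1/S, nocodazole release for mitosis), protein amounts in NP-40 versus SDS lysates quantified by mass spectrometry, three biological replicates.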
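For solubility in G1/S (NP-40 vs SDS abundance) in this document: HeLa Kyoto cells arrested at G1/S by double thymidine block, proteins quantified by TMT10plex mass spectrometry in mild NP-40 versus SDS extracts, three biological replicates.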
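For thermal stability score vs G1/S (z-score of summed log2 fold changes over temperatures) in this document: synchronized HeLa Kyoto cells, proteins quantified by TMT10plex mass spectrometry, three biological replicates, mitosis taken 0.5 h after nocodazole release, G1/S directly after double thymidine block.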

Sequence of MTR (chain, as listed by the source): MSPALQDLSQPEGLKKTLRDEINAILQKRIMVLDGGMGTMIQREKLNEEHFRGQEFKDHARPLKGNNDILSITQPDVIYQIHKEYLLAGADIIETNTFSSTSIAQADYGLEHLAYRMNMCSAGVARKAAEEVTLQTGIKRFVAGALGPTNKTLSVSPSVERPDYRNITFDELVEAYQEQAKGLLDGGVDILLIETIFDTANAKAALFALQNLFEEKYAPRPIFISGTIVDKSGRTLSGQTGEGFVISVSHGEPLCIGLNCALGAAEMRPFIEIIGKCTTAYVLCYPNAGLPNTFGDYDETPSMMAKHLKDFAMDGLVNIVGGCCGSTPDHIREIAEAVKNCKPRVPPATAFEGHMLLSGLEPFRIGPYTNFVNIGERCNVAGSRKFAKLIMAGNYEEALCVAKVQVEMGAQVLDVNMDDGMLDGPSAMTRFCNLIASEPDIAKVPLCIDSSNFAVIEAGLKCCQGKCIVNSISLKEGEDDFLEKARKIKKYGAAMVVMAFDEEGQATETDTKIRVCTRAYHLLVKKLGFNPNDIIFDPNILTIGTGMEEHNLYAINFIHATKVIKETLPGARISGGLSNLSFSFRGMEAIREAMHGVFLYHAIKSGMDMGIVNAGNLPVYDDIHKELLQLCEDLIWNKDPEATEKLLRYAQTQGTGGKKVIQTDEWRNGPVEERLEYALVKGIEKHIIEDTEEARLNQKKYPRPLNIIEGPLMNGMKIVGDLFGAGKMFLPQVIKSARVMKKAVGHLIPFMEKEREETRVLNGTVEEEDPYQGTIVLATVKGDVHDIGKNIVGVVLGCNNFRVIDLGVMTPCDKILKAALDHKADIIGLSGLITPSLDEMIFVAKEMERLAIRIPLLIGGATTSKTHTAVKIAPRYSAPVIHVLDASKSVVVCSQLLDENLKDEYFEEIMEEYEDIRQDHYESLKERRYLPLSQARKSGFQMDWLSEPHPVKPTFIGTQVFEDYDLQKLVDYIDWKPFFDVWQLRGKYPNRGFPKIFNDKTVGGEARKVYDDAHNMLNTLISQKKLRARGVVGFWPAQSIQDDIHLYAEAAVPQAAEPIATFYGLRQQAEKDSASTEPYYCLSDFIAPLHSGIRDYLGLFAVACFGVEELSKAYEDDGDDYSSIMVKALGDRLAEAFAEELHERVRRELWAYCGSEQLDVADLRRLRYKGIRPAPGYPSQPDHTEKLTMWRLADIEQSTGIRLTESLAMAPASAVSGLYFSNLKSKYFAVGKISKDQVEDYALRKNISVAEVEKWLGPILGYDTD

| Substance | solubility in G1/S (log2) (HeLa Kyoto [1]) | melting temperature (HeLa Kyoto [2]; cell cycle stage: G1/S) [°C] | melting temperature (HeLa Kyoto [2]; cell cycle stage: mitosis) [°C] | solubility change mitosis (log2) (HeLa Kyoto [3]) | thermal stability score (HeLa Kyoto [4]; [5]) | thermal stability score (HeLa Kyoto [4]; cell cycle stage: mitosis) |
| --- | --- | --- | --- | --- | --- | --- |
| MWGSDRLAGAGGGGAAVTVAFTNARDCFLHLPRRLVAQLHLLQNQAIEVVWSHQPAFLSWVEGRHFSDQGENVAEINRQVGQKLGLSNGGQVFLKPCSHVVSCQQVEVEPLSADDWEILELHAVSLEQHLLDQIRIVFPKAIFPVWVDQQTYIFIQIVALIPAASYGRLETDTKLLIQPKTRRAKENTFSKADAEYKKLHSYGRDQKGMMKELQTKQLQSNTVGITESNENESEIPVDSSSVASLWTMIGSIFSFQSEKKQETSWGLTEINAFKNMQSKVVPLDNIFRVCKSQPPSIYNASATSVFHKHCAIHVFPWDQEYFDVEPSFTVTYGKLVKLLSPKQQQSKTKQNVLSPEKEKQMSEPLDQKKIRSDHNEEDEKACVLQVVWNGLEELNNAIKYTKNVEVLHLGKVWIPDDLRKRLNIEMHAVVRITPVEVTPKIPRSLKLQPRENLPKDISEEDIKTVFYSWLQQSTTTMLPLVISEEEFIKLETKDGLKEFSLSIVHSWEKEKDKNIFLLSPNLLQKTTIQVLLDPMVKEENSEEIDFILPFLKLSSLGGVNSLGVSSLEHITHSLLGRPLSRQLMSLVAGLRNGALLLTGGKGSGKSTLAKAICKEAFDKLDAHVERVDCKALRGKRLENIQKTLEVAFSEAVWMQPSVVLLDDLDLIAGLPAVPEHEHSPDAVQSQRLAHALNDMIKEFISMGSLVALIATSQSQQSLHPLLVSAQGVHIFQCVQHIQPPNQEQRCEILCNVIKNKLDCDINKFTDLDLQHVAKETGGFVARDFTVLVDRAIHSRLSRQSISTREKLVLTTLDFQKALRGFLPASLRSVNLHKPRDLGWDKIGGLHEVRQILMDTIQLPAKYPELFANLPIRQRTGILLYGPPGTGKTLLAGVIARESRMNFISVKGPELLSKYIGASEQAVRDIFIRAQAAKPCILFFDEFESIAPRRGHDNTGVTDRVVNQLLTQLDGVEGLQGVYVLAATSRPDLIDPALLRPGRLDKCVYCPPPDQVSRLEILNVLSDSLPLADDVDLQHVASVTDSFTGADLKALLYNAQLEALHGMLLSSGLQDGSSSSDSDLSLSSMVFLNHSSGSDDSAGDGECGLDQSLVSLEMSEILPDESKFNMYRLYFGSSYESELGNGTSSDLSSQCLSAPSSMTQDLPGVPGKDQLFSQPPVLRTASQEGCQELTQEQRDQLRADISIIKGRYRSQSGEDESMNQPGPIKTRLAISQSHLMTALGHTRPSISEDDWKNFAELYESFQNPKRRKNQSGTMFRPGQKVTLA [PEX1] | -0.083 | 51.2 | 50.6 | -0.0568 | -0.296 | -0.803 |
| MTR | 0.00491 | 48.6 | 49.9 | -0.144 | -0.177 | 0.37 |
| MLVVEVANGRSLVWGAEAVQALRERLGVGGRTVGALPRGPRQNSRLGLPLLLMPEEARLLAEIGAVTLVSAPRPDSRHHSLALTSFKRQQEESFQEQSALAAEARETRRQELLEKITEGQAAKKQKLEQASGASSSQEAGSSQAAKEDETSDGQASGEQEEAGPSSSQAGPSNGVAPLPRSALLVQLATARPRPVKARPLDWRVQSKDWPHAGRPAHELRYSIYRDLWERGFFLSAAGKFGGDFLVYPGDPLRFHAHYIAQCWAPEDTIPLQDLVAAGRLGTSVRKTLLLCSPQPDGKVVYTSLQWASLQ [TSEN34] | 0.191 | 49.3 | 49.8 | -0.159 | 1.68 | 2.17 |
| AHCTF1 | -1.38 | 50.7 | 50.5 | 1.06 | -1.63 | -0.353 |
| MDAAEVEFLAEKELVTIIPNFSLDKIYLIGGDLGPFNPGLPVEVPLWLAINLKQRQKCRLLPPEWMDVEKLEKMRDHERKEETFTPMPSPYYMELTKLLLNHASDNIPKADEIRTLVKDMWDTRIAKLRVSADSFVRQQEAHAKLDNLTLMEINTSGTFLTQALNHMYKLRTNLQPLESTQSQDF [GINS2] | 0.24 | 50.9 | 52.4 | 0.34 | -1.69 | -2.97 |
| MSGTSSHESFYDSLSDMQEESKNTDFFPGLSAFLSQEEINKSLDLARRAIADSETEDFDSEKEISQIFSTSPASLCEHPSHKETKLGEHASRRPQDNRSTPVQPLAEKQTKSISSPVSKRKPAMSPLLTRPSYIRSLRKAEKRGAKTPSTNVKPKTPHQRKGGPQSQLCDKAANLIEELTSIFKAAKPRNRSPNGESSSPDSGYLSPKNQPSALLSASASQSPMEDQGEMEREVKSPGARHCYQDNQDLAVPHNRKSHPQPHSALHFPAAPRFIQKLRSQEVAEGSRVYLECRVTGNPTPRVRWFCEGKELHNTPDIQIHCEGGDLHTLIIAEAFEDDTGRYTCLATNPSGSDTTSAEVFIEGASSTDSDSESLAFKSRAGAMPQAQKKTTSVSLTIGSSSPKTGVTTAVIQPLSVPVQQVHSPTSYLCRPDGTTTAYFPPVFTKELQNTAVAEGQVVVLECRVRGAPPLQVQWFRQGSEIQDSPDFRILQKKPRSTAEPEEICTLVIAETFPEDAGIFTCSARNDYGSATSTAQLVVTSANTENCSYESMGESNNDHFQHFPPPPPILETSSLELASKKPSEIQQVNNPELGLSRAALQMQFNAAERETNGVHPSRGVNGLINGKANSNKSLPTPAVLLSPTKEPPPLLAKPKLDPLKLQQLQNQIRLEQEAGARQPPPAPRSAPPSPPFPPPPAFPELAACTPPASPEPMSALASRSAPAMQSSGSFNYARPKQFIAAQNLGPASGHGTPASSPSSSSLPSPMSPTPRQFGRAPVPPFAQPFGAEPEAPWGSSSPSPPPPPPPVFSPTAAFPVPDVFPLPPPPPPLPSPGQASHCSSPATRFGHSQTPAAFLSALLPSQPPPAAVNALGLPKGVTPAGFPKKASRTARIASDEEIQGTKDAVIQDLERKLRFKEDLLNNGQPRLTYEERMARRLLGADSATVFNIQEPEEETANQEYKVSSCEQRLISEIEYRLERSPVDESGDEVQYGDVPVENGMAPFFEMKLKHYKIFEGMPVTFTCRVAGNPKPKIYWFKDGKQISPKSDHYTIQRDLDGTCSLHTTASTLDDDGNYTIMAANPQGRISCTGRLMVQAVNQRGRSPRSPSGHPHVRRPRSRSRDSGDENEPIQERFFRPHFLQAPGDLTVQEGKLCRMDCKVSGLPTPDLSWQLDGKPVRPDSAHKMLVRENGVHSLIIEPVTSRDAGIYTCIATNRAGQNSFSLELVVAAKEAHKPPVFIEKLQNTGVADGYPVRLECRVLGVPPPQIFWKKENESLTHSTDRVSMHQDNHGYICLLIQGATKEDAGWYTVSAKNEAGIVSCTARLDVYTQWHQQSQSTKPKKVRPSASRYAALSDQGLDIKAAFQPEANPSHLTLNTALVESEDL [PALLD] | 0.0775 | 50 | 50.5 | -0.0539 | 1.21 | 3.53 |
| MSSSPWEPATLRRVFVVGVGMTKFVKPGAENSRDYPDLAEEAGKKALADAQIPYSAVDQACVGYVFGDSTCGQRAIYHSLGMTGIPIINVNNNCATGSTALFMARQLIQGGVAECVLALGFEKMSKGSLGIKFSDRTIPTDKHVDLLINKYGLSAHPVAPQMFGYAGKEHMEKYGTKIEHFAKIGWKNHKHSVNNPYSQFQDEYSLDEVMASKEVFDFLTILQCCPTSDGAAAAILASEAFVQKYGLQSKAVEILAQEMMTDLPSSFEEKSIIKMVGFDMSKEAARKCYEKSGLTPNDIDVIELHDCFSTNELLTYEALGLCPEGQGATLVDRGDNTYGGKWVINPSGGLISKGHPLGATGLAQCAELCWQLRGEAGKRQVPGAKVALQHNLGIGGAVVVTLYKMGFPEAASSFRTHQIEAVPTSSASDGFKANLVFKEIEKKLEEEGEQFVKKIGGIFAFKVKDGPGGKEATWVVDVKNGKGSVLPNSDKKADCTITMADSDFLALMTGKMNPQSAFFQGKLKITGNMGLAMKLQNLQLQPGNAKL [SCP2] | 0.587 | 54.5 | 54.4 | 0.135 | -1.44 | -2.06 |
| MGCSAKARWAAGALGVAGLLCAVLGAVMIVMVPSLIKQQVLKNVRIDPSSLSFNMWKEIPIPFYLSVYFFDVMNPSEILKGEKPQVRERGPYVYREFRHKSNITFNNNDTVSFLEYRTFQFQPSKSHGSESDYIVMPNILVLGAAVMMENKPMTLKLIMTLAFTTLGERAFMNRTVGEIMWGYKDPLVNLINKYFPGMFPFKDKFGLFAELNNSDSGLFTVFTGVQNISRIHLVDKWNGLSKVDFWHSDQCNMINGTSGQMWPPFMTPESSLEFYSPEACRSMKLMYKESGVFEGIPTYRFVAPKTLFANGSIYPPNEGFCPCLESGIQNVSTCRFSAPLFLSHPHFLNADPVLAEAVTGLHPNQEAHSLFLDIHPVTGIPMNCSVKLQLSLYMKSVAGIGQTGKIEPVVLPLLWFAESGAMEGETLHTFYTQLVLMPKVMHYAQYVLLALGCVLLLVPVICQIRSQVGAGQRAARADSHSLACWGKGASDRTLWPTAAWSPPPAAVLRLCRSGSGHCWGLRSTLASFACRVATTLPVLEGLGPSLGGGTGS [SCARB1] | 0.27 | 56.6 | 63.1 | -0.0198 | -1.41 | -1.54 |
| MAAAQEADGARSAVVAAGGGSSGQVTSNGSIGRDPPAETQPQNPPAQPAPNAWQVIKGVLFRIFIIWAISSWFRRGPAPQDQAGPGGAPRVASRNLFPKDTLMNLHVYISEHEHFTDFNATSALFWEQHDLVYGDWTSGENSDGCYEHFAELDIPQSVQQNGSIYIHVYFTKSGFHPDPRQKALYRRLATVHMSRMINKYKRRRFQKTKNLLTGETEADPEMIKRAEDYGPVEVISHWHPNITINIVDDHTPWVKGSVPPPLDQYVKFDAVSGDYYPIIYFNDYWNLQKDYYPINESLASLPLRVSFCPLSLWRWQLYAAQSTKSPWNFLGDELYEQSDEEQDSVKVALLETNPYLLALTIIVSIVHSVFEFLAFKNDIQFWNSRQSLEGLSVRSVFFGVFQSFVVLLYILDNETNFVVQVSVFIGVLIDLWKITKVMDVRLDREHRVAGIFPRLSFKDKSTYIESSTKVYDDMAFRYLSWILFPLLGCYAVYSLLYLEHKGWYSWVLSMLYGFLLTFGFITMTPQLFINYKLKSVAHLPWRMLTYKALNTFIDDLFAFVIKMPVMYRIGCLRDDVVFFIYLYQRWIYRVDPTRVNEFGMSGEDPTAAAPVAEVPTAAGALTPTPAPTTTTATREEASTSLPTKPTQGASSASEPQEAPPKPAEDKKKD [CLPTM1] | -0.0403 | 53.4 | 53.8 | -0.142 | 3.21 | 0.298 |
| MATKIDKEACRAAYNLVRDDGSAVIWVTFKYDGSTIVPGEQGAEYQHFIQQCTDDVRLFAFVRFTTGDAMSKRSKFALITWIGENVSGLQRAKTGTDKTLVKEVVQNFAKEFVISDRKELEEDFIKSELKKAGGANYDAQTE [COTL1] | 0.108 | 52.4 | 52.8 | 0.0356 | 3.44 | 1.43 |
| MRLRRLALFPGVALLLAAARLAAASDVLELTDDNFESRISDTGSAGLMLVEFFAPWCGHCKRLAPEYEAAATRLKGIVPLAKVDCTANTNTCNKYGVSGYPTLKIFRDGEEAGAYDGPRTADGIVSHLKKQAGPASVPLRTEEEFKKFISDKDASIVGFFDDSFSEAHSEFLKAASNLRDNYRFAHTNVESLVNEYDDNGEGIILFRPSHLTNKFEDKTVAYTEQKMTSGKIKKFIQENIFGICPHMTEDNKDLIQGKDLLIAYYDVDYEKNAKGSNYWRNRVMMVAKKFLDAGHKLNFAVASRKTFSHELSDFGLESTAGEIPVVAIRTAKGEKFVMQEEFSRDGKALERFLQDYFDGNLKRYLKSEPIPESNDGPVKVVVAENFDEIVNNENKDVLIEFYAPWCGHCKNLEPKYKELGEKLSKDPNIVIAKMDATANDVPSPYEVRGFPTIYFSPANKKLNPKKYEGGRELSDFISYLQREATNPPVIQEEKPKKKKKAQEDL [PDIA3] | 0.299 | 53.3 | 53.7 | 0.000907 | 4.82 | 4.63 |
| CAMSAP1 | -0.149 | 50.4 | 50.2 | 0.0139 | -0.2 | 0.324 |
